Experimental data: publication PMC8630636, “Fis Connects Two Sensory Pathways, Quorum Sensing and Surface Sensing, to Control Motility in Vibrio parahaemolyticus”

T1: Fis (Vibrio parahaemolyticus RIMD2210633) (UniProt P64128)
T1 sequence: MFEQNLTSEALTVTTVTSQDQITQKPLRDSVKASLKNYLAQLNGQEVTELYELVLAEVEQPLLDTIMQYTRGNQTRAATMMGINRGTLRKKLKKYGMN

T2: Fis (Vibrio parahaemolyticus RIMD2210633, UniProt P64128 1-98)
T2 sequence: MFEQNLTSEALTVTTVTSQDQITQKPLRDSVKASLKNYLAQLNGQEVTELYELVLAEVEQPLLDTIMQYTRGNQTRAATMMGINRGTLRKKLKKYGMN


Each molecule was assayed against T1, Fis (Vibrio parahaemolyticus RIMD2210633) (assay: EMSA). Details: 10 mM Tris, 150 mM KCl, 0.1 mM DTT, 0.1 mM EDTA, 5% PEG, pH 7.4, 20 min at room temperature; 30 ng DNA; 6% native gel in 1x TAE at 4 C.

| Molecule | binding |
| --- | --- |
| AATCTACTTGTTGTTATAGCCAGAGCTGGTGGGTTATCCCATAAATAGGGTTGCTAAGTTTATGGACAAAAACGTCACTGGGTGTTTTTTGTGTCCTTTTTAACACCTTTATATATTGCTCAAAAATTAAGTGTTTTCGATCATGATTAACG (double strand) [ParaB probe 2] | binds |
| AGCCTGACGTTGGTAAGGTGCGCTAAAACACCAAAATATGCCGAGTTAAAAGATACCAAAAATCGATGTACTTCCTCTGTAGGAATAGTCCTATTTACATAGCAGGAAACACCTAAAGCAGCGCTTTATTAACGGCTTAATCAACACGTCACATTCCTAAAATGAATTAAATATTTTCAGCTTTTTAGTCGCCTTGTCTTATAGGGAAACACTAGATGTTTTCGAGAGGAAGGCGGAACACATA (double strand) [PlafB] | binds |
| CATAGGTTCACCTTTAAGAATTATTGTTTGTGTTATGGTTCACATTTATTTCAGTTACCGGTAACATGTTACCGATAACATGAATAAGATAAACCCATATTTTAAAGTGAATTCAAAAATTGAGATCACGCGCAAATT (double strand) [PgntK probe 1] | binds |
| CCATCCACTGGTAGAGGTGAGTGTTCGCTGTACATATTTGTGCATCCTTGACCATTTGTTAGTGATAAAAATCACAGCGGAAAAATGTAGCAATTTTGTCCATTCATTTAGCTACAGAGGCTATGAAGCAGCTCTCAA (double strand) [ParaB probe 1] | binds |
| CCATTTGAAAAGGGATTGAGTGTTGTTGATAGAGTTTTTTTTACTGGAGATTTGATACGTTAACTGGATTTTTGTAACATTAAAATGGAAGTGTGATTTTGCTCAATAGCACAAAAGTCCAGTCCGGTGT (double strand) [VPA1424 regulatory region (negative control)] | binds more weakly |
| CTTAATAATAGTTTTATCTATAAACAAACAGTGAGCTTTGTTATAAATTCATTAAAAATTTAACTTTGTATTAATTAGAAAATTCAGCGTCATATTTGTTCAACTGCGACTATTCTTTTTATAACCAAGTAATCTC (double strand) [PscrABC probe 2] | binds |
| GAGCTCTCCTAGGTACCAACCGTGAAATCCATTTACTGAGGTATTTTTCCTCATTAATTAGCAGTATAGGGTAAAAATATGAAAGCTAATGGATAATCATAAAGTAGTAGTTGGTTTTTTGCTGAGAAAGTGATTAGTAGCAATGTAACAAGTGGCATATTTGCATGCTATTGCATTTTGCAAATGCAATTTGCGAAAGTGCTGGTTAATAATGCGTCGATATGCACCTGGATCTATTAAAAAACGGCTTTTTTAAAGTTGGCACGCATCGTGCTTTATCTAGAG (double strand) [Pqrr4] | binds |
| GCGTTTATCATAAAAATAGTCAATTTAATGAATATTTTAATATGTATTCAGTTGTTTATTGGTTGGAGGCGAAACTGTTGCTTATGTCATCAAATAAGCTAAAAAAGTGGAACTAAAGTCACTTAATGGCAGAGTAAAAAATTAAAG (double strand) [PscrABC probe 1] | binds |
| TATGTTAAGTTTCATAAAATGGCTTGATGTTTAAATGAACAGTTAATTTTTAGACCATATATAGCGAGATCTAAAGTAGTTCAAACAAATGTACGGTCTAACTCTTAGCTGCGAGAACAAACCACTTGGATATACGCTC (double strand) [PscrABC probe 3] | binds |
| TCACGCGAATACGCACTTTAATACGTATGTCTAATGTTTATACGCGACCACTTTCGCCTAAAAGTTTAGGTATAGTTGATAATTAGTCGACTTAAGCAATCTATGTACCAAAATCAACGCCAAAATAATGACTCAAAGCTAAATAACAGCACAATCCATTG (double strand) [PflhA] | binds |

Each molecule was assayed against T2, Fis (assay: EMSA; 10 mM Tris, 150 mM KCl, 0.1 mM DTT, 0.1 mM EDTA, 5% PEG, pH 7.4, 20 min at room temperature; 30 ng DNA; 6% native gel in 1x TAE at 4 C). Details: protein: recombinant; tags: 6xHis-MBP fusion (pMAL-c5x) removed by TEV cleavage; chain copies: 2; blunt.

| Molecule | binding result |
| --- | --- |
| ParaB_mut (probe 3) (dsDNA) DNA 1: TTTTTATCACTCCTCGTAGAAACCCTATTTATGGGATAACCCAC DNA 2: GTGGGTTATCCCATAAATAGGGTTTCTACGAGGAGTGATAAAAA | no binding |
| ParaB_WT (probe 3) (dsDNA) DNA 1: TTTTTGTCCATAAACTTAGCAACCCTATTTATGGGATAACCCAC DNA 2: GTGGGTTATCCCATAAATAGGGTTGCTAAGTTTATGGACAAAAA | binds |
| Qrr3coding_mut (dsDNA) DNA 1: CCTTCTTAAGCCGAGAGTATCTTAGATAAATGACGTTGTTAGTGAA DNA 2: TTCACTAACAACGTCATTTATCTAAGATACTCTCGGCTTAAGAAGG | no binding |
